Assay results as given in article PMC12775124, “CUL4A-DDB1-DCAF10 is an N-recognin for N-terminally acetylated Src kinases” (Nature Communications, 2026).
“Also recorded” adds a separate entry of the source.

Columns and labels:
[1] = system: DLD-1 Lyn KO Flp-In T-REx cells; test: Direct ubiquitin blot of Lyn-GFP immunoprecipitates; assay type: cell-based, human; conditions: anti-GFP IP, anti-Ub blot, n = 3
Experimental: Fig. 6 N-terminal glycine mutation abolishes DCAF10-dependent stability and ubiquitination. a DLD-1 Flp-In T-REx cells and Lyn KO cells expressing Lyn^WT-GFP, Lyn^G2A-GFP, or Lyn^G2P-GFP were induced for 24 h with 100 ng/mL doxycycline. Cells were treated with NMT1/2 siRNA, DCAF10 siRNA, or both (or left untreated) for 72 h. Representative WBs are shown. Filled circles represent siRNA treatment, empty circles untreated. b WB quantifications of Lyn levels normalized to vinculin. Purple: untreated with NMT1/2 siRNA; blue: treated with NMT1/2 siRNA. Mean ± s.d. with individual data points are shown (n = 3 independent biological replicates). c Schematic of ubiquitination experiments. Created in BioRender. […] Lysates have been treated with NMT1/2 RNAi for 72 h. i Quantification of in vitro ubiquitination assays. Mean ± s.d. with individual data points are shown (n = 3 independent ubiquitination assays). Volcano plots of Lyn-GFP^WT binding partners: j NMT1/2 siRNA ± doxycycline (Dox); k Control ± doxycycline; l NMT1/2 siRNA vs. control both with doxycycline. The −log10 adjusted p-value (two-sided Student’s t test with permutation-based multiple-testing correction; y-axis) is plotted against the log2 fold change (x-axis). […]
We next assessed the role of the Lyn Nt-residue for ubiquitination by performing two complementary experimental set-ups (Fig. 6c). […]

[2] = system: DLD-1 Flp-In T-REx and Lyn KO cells; test: Level of Lyn / Lyn-GFP variants after NMT1/2 and DCAF10 siRNA, Western blot; assay type: cell-based, human; conditions: DLD-1, 72 h siRNA
From the text: To further investigate the role of the Nt-amino acid and its modification in DCAF10 recognition and DCAF10-dependent ubiquitination, we used the CRISPR/Cas9 technique to knock out Lyn in DLD-1 cell lines with T-REx Flp-In background (DLD-1 Lyn KO Flp-In T-REx) (Supplementary Fig. 7a–c). We then integrated Lyn^WT-GFP and two Nt-mutants (Lyn^G2A-GFP and Lyn^G2P-GFP) under a doxycycline-inducible promoter into the Flp-In cassette. Alanine (G2A) is expected to be efficiently acetylated by NatA, generating an Nt-acetylated Lyn mutant. Conversely, the proline (G2P) mutant, is expected not to be acetylated and may retain a free N-terminus[3],[36],[37]. Doxycycline-induced expression of Lyn^WT-GFP, Lyn^G2A-GFP, and Lyn^G2P-GFP was confirmed by Western blot, MS, and fluorescence microscopy (Supplementary Figs. 7d, e; 8a and Supplementary Data 6). […]
Fig. 6 N-terminal glycine mutation abolishes DCAF10-dependent stability and ubiquitination. a DLD-1 Flp-In T-REx cells and Lyn KO cells expressing Lyn^WT-GFP, Lyn^G2A-GFP, or Lyn^G2P-GFP were induced for 24 h with 100 ng/mL doxycycline. […] Filled circles represent siRNA treatment, empty circles untreated. b WB quantifications of Lyn levels normalized to vinculin. […] Lysates have been treated with NMT1/2 RNAi for 72 h. i Quantification of in vitro ubiquitination assays. […]

B1: Lyn^G2A-GFP: Nt-mutant (G2A) Lyn-GFP (protein, UniProt P07948 2-512, looked up, variant G2A)
Tyrosine-protein kinase Lyn: ACIKSKGKDSLSDDGVDLKTQPVRNTERTIYVRDPTSNKQQRPVPESQLLPGQRFQTKDPEEQGDIVVALYPYDGIHPDDLSFKKGEKMKVLEEHGEWWKAKSLLTKKEGFIPSNYVAKLNTLETEEWFFKDITRKDAERQLLAPGNSAGAFLIRESETLKGSFSLSVRDFDPVHGDVIKHYKIRSLDNGGYYISPRITFPCISDMIKHYQKQADGLCRRLEKACISPKPQKPWDKDAWEIPRESIKLVKRLGAGQFGEVWMGYYNNSTKVAVKTLKPGTMSVQAFLEEANLMKTLQHDKLVRLYAVVTREEPIYIITEYMAKGSLLDFLKSDEGGKVLLPKLIDFSAQIAEGMAYIERKNYIHRDLRAANVLVSESLMCKIADFGLARVIEDNEYTAREGAKFPIKWTAPEAINFGCFTIKSDVWSFGILLYEIVTYGKIPYPGRTNADVMTALSQGYRMPRVENCPDELYDIMKMCWKEKAEERPTFDYLQSVLDDFYTATEGQYQQQP
modifications: GFP fusion
In the case of B1, the “Ubiquitination in cells (in words)” value [1] is reported as “no detectable ubiquitination” and the “Dependency on NMT1/2 and DCAF10 (in words)” value [2] is reported as “did not show such dependency; also recorded: slight increase after DCAF10 depletion, independently of NMT1/2”.

B2: Lyn^G2P-GFP: Nt-mutant (G2P) Lyn-GFP (protein, UniProt P07948 2-512, looked up, variant G2P)
Tyrosine-protein kinase Lyn: PCIKSKGKDSLSDDGVDLKTQPVRNTERTIYVRDPTSNKQQRPVPESQLLPGQRFQTKDPEEQGDIVVALYPYDGIHPDDLSFKKGEKMKVLEEHGEWWKAKSLLTKKEGFIPSNYVAKLNTLETEEWFFKDITRKDAERQLLAPGNSAGAFLIRESETLKGSFSLSVRDFDPVHGDVIKHYKIRSLDNGGYYISPRITFPCISDMIKHYQKQADGLCRRLEKACISPKPQKPWDKDAWEIPRESIKLVKRLGAGQFGEVWMGYYNNSTKVAVKTLKPGTMSVQAFLEEANLMKTLQHDKLVRLYAVVTREEPIYIITEYMAKGSLLDFLKSDEGGKVLLPKLIDFSAQIAEGMAYIERKNYIHRDLRAANVLVSESLMCKIADFGLARVIEDNEYTAREGAKFPIKWTAPEAINFGCFTIKSDVWSFGILLYEIVTYGKIPYPGRTNADVMTALSQGYRMPRVENCPDELYDIMKMCWKEKAEERPTFDYLQSVLDDFYTATEGQYQQQP
modifications: C-terminal GFP fusion
B2 was tested, and the “Ubiquitination in cells (in words)” value [1] was “no detectable ubiquitination” and the “Dependency on NMT1/2 and DCAF10 (in words)” value [2] was “did not show such dependency”.
